{"source": "patent US20240018502A1", "binders": {"B1": {"name": "MTSP-1 protease domain Q38H/I41A/D60bV/F60eR/Y60gW/D96I/F97N/T98G/F99L/C122S/G151H/Q175L/Q192D (enzyme)", "chain": "VVGGTDADEGEWPWQVSLHALGHGHACGASLISPNWLVSAAHCYIDVRGRRWSDPTQWTAFLGLHDQSQRSAPGVQERRLKRIISHPFFNINGLDYDIALLELEKPAEYSSMVRPISLPDASHVFPAGKAIWVTGWGHTQYGGTHALILQKGEIRVINQTTCENLLPQLITPRMMCVGFLSGGVDSCDGDSGGPLSSVEADGRIFQAGVVSWGDGCAQRNKPGVYTRLPLFRDWIKENTGV"}, "B2": {"name": "MTSP-1 protease domain Q38H/I41S/D60bT/F60eS/Y60gW/F97D/F99L/C122S/G151N/Q175L/Q192D (enzyme)", "chain": "B1 chain with A26S, V47T, R50S, I91D, N92D, G93T, H145N"}, "B3": {"name": "MTSP-1 protease domain Q38H/I41A/D60bV/F60eR/Y60gW/F97D/F99L/C122S/G151H/Q175L/Q192D (enzyme)", "chain": "B1 chain with I91D, N92D, G93T"}, "B4": {"name": "MTSP-1 protease domain Q38H/I41S/D60bT/F60eS/Y60gW/D96I/F97N/T98G/F99L/C122S/G151N/Q175L/Q192D (enzyme)", "chain": "B1 chain with A26S, V47T, R50S, H145N"}, "B5": {"name": "MTSP-1 Q38H/I41A/D60bV/F60eR/Y60gW/ins97aE/F97T/T98G/F99L/C122S/G151H/Q175L/Q192D (enzyme)", "chain": "VVGGTDADEGEWPWQVSLHALGHGHACGASLISPNWLVSAAHCYIDVRGRRWSDPTQWTAFLGLHDQSQRSAPGVQERRLKRIISHPFFNDTEGLDYDIALLELEKPAEYSSMVRPISLPDASHVFPAGKAIWVTGWGHTQYGGTHALILQKGEIRVINQTTCENLLPQLITPRMMCVGFLSGGVDSCDGDSGGPLSSVEADGRIFQAGVVSWGDGCAQRNKPGVYTRLPLFRDWIKENTGV"}, "B6": {"name": "MTSP-1 Q38H/I41S/D60bT/F60eH/Y60gF/ins97aV/F97D/T98P/F99L/C122S/H143R/G151N/Q175L/Q192S (enzyme)", "chain": "B5 chain with A26S, V47T, R50H, W52F, T92D, E93V, G94P, H139R, H146N, D189S"}, "B7": {"name": "MTSP-1 protease domain Q38H/I41A/D60bV/F60eR/Y60gW/D96P/ins97aN/F97W/T98G/F99L/C122S/G151N/Q175L/Q192D (enzyme)", "chain": "B5 chain with D91P, T92W, E93N, H146N"}, "B8": {"name": "MTSP-1 protease domain Q38H/I41A/D60bV/F60eR/Y60gW/D96P/ins97aN/F97W/T98G/F99L/C122S/G151H/Q175L/Q192D (enzyme)", "chain": "B5 chain with D91P, T92W, E93N"}, "B9": {"name": "MTSP-1 protease domain Q38H/I41A/D60bV/F60eR/Y60gW/D96I/ins97aN/F97Y/T98G/F99L/C122S/G151H/Q175L/Q192D (enzyme)", "chain": "B5 chain with D91I, T92Y, E93N"}, "B10": {"name": "MTSP-1 Q38H/I41S/D60bT/F60eS/Y60gW/D96K/ins97aA/F97D/T98P/F99L/C122S/G151H/Q175L/Q192D (enzyme)", "chain": "B5 chain with A26S, V47T, R50S, D91K, T92D, E93A, G94P"}, "B11": {"name": "MTSP-1 protease domain Q38H/I41A/D60bV/F60eR/Y60gW/D96Q/F97E/ins97aD/T98S/F99L/C122S/G151N/Q175L/Q192R (enzyme)", "chain": "B5 chain with D91Q, T92E, E93D, G94S, H146N, D189R"}, "B12": {"name": "MTSP-1 protease domain Q38H/I41S/D60bT/F60eS/Y60gW/D96Y/ins97aV/F97E/T98G/F99L/C122S/G151N/Q175L/Q192D (enzyme)", "chain": "B5 chain with A26S, V47T, R50S, D91Y, T92E, E93V, H146N"}, "B13": {"name": "MTSP-1 Q38H/I41A/D60bV/F60eR/Y60gW/D96P/ins97aN/F97W/T98G/F99L/C122S/G151N/Q175L/Q192E (enzyme)", "chain": "B5 chain with D91P, T92W, E93N, H146N, D189E"}, "B14": {"name": "MTSP-1 protease domain Q38H/I41A/D60bV/F60eR/Y60gW/D96P/ins97aN/F97W/T98G/F99L/C122S/G151H/Q175L/Q192E (enzyme)", "chain": "B5 chain with D91P, T92W, E93N, D189E"}, "B15": {"name": "MTSP-1 Q38H/I41T/D60bV/F60eR/Y60gW/D96I/ins97aN/F97Y/T98G/F99L/C122S/G151N/Q175L/Q192D (enzyme)", "chain": "B5 chain with A26T, D91I, T92Y, E93N, H146N"}, "B16": {"name": "MTSP-1 protease domain Q38H/I41S/D60bT/F60eS/Y60gW/D96L/ins97aG/F97D/T98N/F99L/C122S/G151H/Q175L/Q192E (enzyme)", "chain": "B5 chain with A26S, V47T, R50S, D91L, T92D, E93G, G94N, D189E"}, "B17": {"name": "MTSP-1 Q38H/I41A/D60bV/F60eR/Y60gW/D96I/ins97aN/F97Y/T98G/F99L/C122S/G151N/Q175L/Q192D (enzyme)", "chain": "B5 chain with D91I, T92Y, E93N, H146N"}, "B18": {"name": "MTSP-1 Q38H/I41S/D60bF/F60eQ/Y60gF/ins97aV/F97D/T98P/F99L/C122S/H143A/G151N/Q175L/Q192A (enzyme)", "chain": "B5 chain with A26S, V47F, R50Q, W52F, T92D, E93V, G94P, H139A, H146N, D189A"}, "B19": {"name": "MTSP-1 Q38H/I41S/D60bT/F60eS/Y60gW/D96Y/ins97aV/F97E/T98G/F99L/C122S/G151H/Q175L/Q192D (enzyme)", "chain": "B5 chain with A26S, V47T, R50S, D91Y, T92E, E93V"}, "B20": {"name": "MTSP-1 Q38H/I41A/D60bV/F60eR/Y60gW/D96S/ins97aR/F97A/T98S/F99L/C122S/G151N/Q175L/Q192T (enzyme)", "chain": "B5 chain with D91S, T92A, E93R, G94S, H146N, D189T"}, "B21": {"name": "MTSP-1 protease domain Q38H/I41S/D60bT/F60eS/Y60gW/D96K/ins97aV/F97G/T98P/F99L/C122S/G151H/Q175L/Q192D (enzyme)", "chain": "B5 chain with A26S, V47T, R50S, D91K, T92G, E93V, G94P"}, "B22": {"name": "MTSP-1 Q38H/I41A/D60bV/F60eR/Y60gW/D96Y/ins97aI/F97E/T98N/F99M/C122S/G151N/Q175L/Q192V (enzyme)", "chain": "B5 chain with D91Y, T92E, E93I, G94N, L95M, H146N, D189V"}, "B23": {"name": "MTSP-1 protease domain Q38H/I41S/D60bT/F60eS/Y60gW/D96F/F97D/ins97aE/T98S/F99L/C122S/G151H/Q175L/Q192A (enzyme)", "chain": "B5 chain with A26S, V47T, R50S, D91F, T92D, G94S, D189A"}}, "biological_target": "plasma purified human complement protein C3 (human) (UniProt P01024)", "sequence (P01024 23-667, chain 1 of 2)": "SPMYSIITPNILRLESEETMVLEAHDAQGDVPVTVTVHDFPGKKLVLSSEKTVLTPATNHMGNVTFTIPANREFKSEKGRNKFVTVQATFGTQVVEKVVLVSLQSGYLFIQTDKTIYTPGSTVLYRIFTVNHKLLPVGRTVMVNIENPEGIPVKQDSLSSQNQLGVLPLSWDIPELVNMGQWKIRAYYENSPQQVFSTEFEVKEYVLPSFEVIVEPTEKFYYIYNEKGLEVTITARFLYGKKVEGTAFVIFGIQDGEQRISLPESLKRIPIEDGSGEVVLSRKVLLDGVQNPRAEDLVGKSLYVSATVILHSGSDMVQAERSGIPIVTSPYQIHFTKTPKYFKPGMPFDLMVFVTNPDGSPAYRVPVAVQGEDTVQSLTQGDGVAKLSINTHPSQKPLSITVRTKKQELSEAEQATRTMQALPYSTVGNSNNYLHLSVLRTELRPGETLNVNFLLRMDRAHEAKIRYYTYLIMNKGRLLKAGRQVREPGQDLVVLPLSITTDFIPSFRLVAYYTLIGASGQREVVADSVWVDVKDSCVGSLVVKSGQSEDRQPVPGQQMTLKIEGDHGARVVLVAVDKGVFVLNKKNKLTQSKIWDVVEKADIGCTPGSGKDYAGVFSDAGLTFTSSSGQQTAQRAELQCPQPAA", "sequence (P01024 672-1663, chain 2 of 2)": "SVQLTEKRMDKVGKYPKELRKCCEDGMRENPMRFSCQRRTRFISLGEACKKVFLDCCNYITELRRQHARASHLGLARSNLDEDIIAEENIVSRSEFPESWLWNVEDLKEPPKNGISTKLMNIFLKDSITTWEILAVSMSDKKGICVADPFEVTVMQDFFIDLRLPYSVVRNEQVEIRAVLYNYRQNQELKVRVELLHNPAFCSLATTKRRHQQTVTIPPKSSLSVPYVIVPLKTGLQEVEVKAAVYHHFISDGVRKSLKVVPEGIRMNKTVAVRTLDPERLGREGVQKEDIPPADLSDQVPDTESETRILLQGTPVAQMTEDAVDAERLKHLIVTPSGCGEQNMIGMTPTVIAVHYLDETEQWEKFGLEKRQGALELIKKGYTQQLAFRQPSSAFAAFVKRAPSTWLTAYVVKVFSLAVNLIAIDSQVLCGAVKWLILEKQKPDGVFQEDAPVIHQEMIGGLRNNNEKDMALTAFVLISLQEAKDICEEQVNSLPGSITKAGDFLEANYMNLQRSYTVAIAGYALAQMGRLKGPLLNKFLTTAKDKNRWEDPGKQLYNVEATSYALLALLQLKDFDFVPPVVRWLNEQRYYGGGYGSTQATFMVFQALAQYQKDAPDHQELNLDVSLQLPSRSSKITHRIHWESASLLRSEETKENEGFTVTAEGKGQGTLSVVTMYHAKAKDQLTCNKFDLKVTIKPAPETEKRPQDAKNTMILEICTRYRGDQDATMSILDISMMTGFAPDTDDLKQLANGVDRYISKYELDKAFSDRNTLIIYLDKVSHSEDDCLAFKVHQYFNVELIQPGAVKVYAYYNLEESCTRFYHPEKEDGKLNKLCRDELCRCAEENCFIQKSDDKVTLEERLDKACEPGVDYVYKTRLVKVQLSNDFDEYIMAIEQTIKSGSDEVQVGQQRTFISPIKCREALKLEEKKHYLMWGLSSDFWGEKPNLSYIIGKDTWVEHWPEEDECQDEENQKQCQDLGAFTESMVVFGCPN", "test": "cell-based or functional assay", "note": "Where a chain is given by its changes, count along the chain named. Names may count otherwise.", "data": [{"binder": "B1", "values": [{"measurement": "EC50 hC3 cleavage", "value": 2.52, "unit": "nM"}]}, {"binder": "B2", "values": [{"measurement": "EC50 hC3 cleavage", "value": 4.9, "unit": "nM"}]}, {"binder": "B3", "values": [{"measurement": "EC50 hC3 cleavage", "value": 3.72, "unit": "nM"}]}, {"binder": "B4", "values": [{"measurement": "EC50 hC3 cleavage", "value": 3.04, "unit": "nM"}]}, {"binder": "B5", "values": [{"measurement": "EC50 of hC3 cleavage", "value": 5.93, "unit": "nM"}]}, {"binder": "B6", "values": [{"measurement": "EC50 of hC3 cleavage", "value": 21, "unit": "nM"}]}, {"binder": "B7", "values": [{"measurement": "EC50 hC3 cleavage", "value": 2.54, "unit": "nM"}]}, {"binder": "B8", "values": [{"measurement": "EC50 hC3 cleavage", "value": 1.83, "unit": "nM"}]}, {"binder": "B9", "values": [{"measurement": "EC50 hC3 cleavage", "value": 1.57, "unit": "nM"}]}, {"binder": "B10", "values": [{"measurement": "EC50 of hC3 cleavage", "value": 7.09, "unit": "nM"}]}, {"binder": "B11", "values": [{"measurement": "EC50 hC3 cleavage", "value": 4.6, "unit": "nM"}]}, {"binder": "B12", "values": [{"measurement": "EC50 hC3 cleavage", "value": 4.13, "unit": "nM"}]}, {"binder": "B13", "values": [{"measurement": "EC50 of hC3 cleavage", "value": 1.51, "unit": "nM"}]}, {"binder": "B14", "values": [{"measurement": "EC50 hC3 cleavage", "value": 1.11, "unit": "nM"}]}, {"binder": "B15", "values": [{"measurement": "EC50 of hC3 cleavage", "value": 9.75, "unit": "nM"}]}, {"binder": "B16", "values": [{"measurement": "EC50 hC3 cleavage", "value": 1.59, "unit": "nM"}]}, {"binder": "B17", "values": [{"measurement": "EC50 of hC3 cleavage", "value": 2.23, "unit": "nM"}]}, {"binder": "B18", "values": [{"measurement": "EC50 of hC3 cleavage", "value": 4.58, "unit": "nM"}]}, {"binder": "B19", "values": [{"measurement": "EC50 of hC3 cleavage", "value": 4.62, "unit": "nM"}]}, {"binder": "B20", "values": [{"measurement": "EC50 of hC3 cleavage", "value": 2.07, "unit": "nM"}]}, {"binder": "B21", "values": [{"measurement": "EC50 hC3 cleavage", "value": 6.86, "unit": "nM"}]}, {"binder": "B22", "values": [{"measurement": "EC50 of hC3 cleavage", "value": 4.36, "unit": "nM"}]}, {"binder": "B23", "values": [{"measurement": "EC50 hC3 cleavage", "value": 1.17, "unit": "nM"}]}]}
